Results reported in US20120219562A1 (AbbVie / Abbott, published 2012).

T1: human interleukin 12 (p70 heterodimer of p35 and p40) (human, UniProt P29459 23-219; P29460 23-328)
T1 construct: Recombinant human IL-12; also called hIL-12; IL-12
T1 sequence (looked up) 1: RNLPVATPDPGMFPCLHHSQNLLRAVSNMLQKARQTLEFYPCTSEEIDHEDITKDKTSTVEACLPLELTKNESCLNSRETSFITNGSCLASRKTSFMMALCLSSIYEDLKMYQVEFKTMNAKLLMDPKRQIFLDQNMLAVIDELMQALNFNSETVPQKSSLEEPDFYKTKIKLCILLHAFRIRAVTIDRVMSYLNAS
T1 sequence (looked up) 2: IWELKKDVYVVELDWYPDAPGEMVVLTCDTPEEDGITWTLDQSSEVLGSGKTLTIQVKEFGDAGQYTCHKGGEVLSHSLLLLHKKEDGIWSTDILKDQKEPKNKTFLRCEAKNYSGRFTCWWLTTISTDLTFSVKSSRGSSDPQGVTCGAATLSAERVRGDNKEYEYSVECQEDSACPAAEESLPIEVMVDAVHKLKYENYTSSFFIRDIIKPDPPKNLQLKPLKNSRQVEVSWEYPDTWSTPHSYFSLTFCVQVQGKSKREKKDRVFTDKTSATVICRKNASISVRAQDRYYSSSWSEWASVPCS


Target: T1, human interleukin 12 (p70 heterodimer …)
Test: SPR (BIAcore), off-rate

| Binder | koff |
| --- | --- |
| SEQ ID NO: 499 (Y61, Q at L32) (antibody, V domains shown) VH: QVQLVQSGGGVVQPGRSLRLSCAASGFTFSSYGMHWVRQAPGKGLEWVAFIRYDGSNKYYADSVKGRFTISRDNSKNTLYLQMKSLRAEDTAVYYCKTHGSHDNWGQGTMVTVSS VL: SYVLTQPPSVSGTPGQRVTISCSGGRSNIGSNQVKWYQQLPGTAPKLLIYGNDQRPSGVPDRFSGSKSGTSASLAITGVQAEDEADYYCQSYDRGTHPALLFGTGTKVTVLG | 0.00247 s⁻¹ |
| SEQ ID NO: 492 (Y61, C at L32) (antibody, V domains shown) VH: QVQLVQSGGGVVQPGRSLRLSCAASGFTFSSYGMHWVRQAPGKGLEWVAFIRYDGSNKYYADSVKGRFTISRDNSKNTLYLQMKSLRAEDTAVYYCKTHGSHDNWGQGTMVTVSS VL: SYVLTQPPSVSGTPGQRVTISCSGGRSNIGSNCVKWYQQLPGTAPKLLIYGNDQRPSGVPDRFSGSKSGTSASLAITGVQAEDEADYYCQSYDRGTHPALLFGTGTKVTVLG | 0.00381 s⁻¹ |
| SEQ ID NO: 494 (Y61, Y at L32) (antibody, V domains shown) VH: QVQLVQSGGGVVQPGRSLRLSCAASGFTFSSYGMHWVRQAPGKGLEWVAFIRYDGSNKYYADSVKGRFTISRDNSKNTLYLQMKSLRAEDTAVYYCKTHGSHDNWGQGTMVTVSS VL: SYVLTQPPSVSGTPGQRVTISCSGGRSNIGSNYVKWYQQLPGTAPKLLIYGNDQRPSGVPDRFSGSKSGTSASLAITGVQAEDEADYYCQSYDRGTHPALLFGTGTKVTVLG | 0.000213 s⁻¹ |
| SEQ ID NO: 505 (Y61, P at L32) (antibody, V domains shown) VH: QVQLVQSGGGVVQPGRSLRLSCAASGFTFSSYGMHWVRQAPGKGLEWVAFIRYDGSNKYYADSVKGRFTISRDNSKNTLYLQMKSLRAEDTAVYYCKTHGSHDNWGQGTMVTVSS VL: SYVLTQPPSVSGTPGQRVTISCSGGRSNIGSNPVKWYQQLPGTAPKLLIYGNDQRPSGVPDRFSGSKSGTSASLAITGVQAEDEADYYCQSYDRGTHPALLFGTGTKVTVLG | 0.000424 s⁻¹ |
| SEQ ID NO: 498 (Y61, N at L32) (antibody, V domains shown) VH: QVQLVQSGGGVVQPGRSLRLSCAASGFTFSSYGMHWVRQAPGKGLEWVAFIRYDGSNKYYADSVKGRFTISRDNSKNTLYLQMKSLRAEDTAVYYCKTHGSHDNWGQGTMVTVSS VL: SYVLTQPPSVSGTPGQRVTISCSGGRSNIGSNNVKWYQQLPGTAPKLLIYGNDQRPSGVPDRFSGSKSGTSASLAITGVQAEDEADYYCQSYDRGTHPALLFGTGTKVTVLG | 0.00197 s⁻¹ |
| SEQ ID NO: 496 (Y61, K at L32) (antibody, V domains shown) VH: QVQLVQSGGGVVQPGRSLRLSCAASGFTFSSYGMHWVRQAPGKGLEWVAFIRYDGSNKYYADSVKGRFTISRDNSKNTLYLQMKSLRAEDTAVYYCKTHGSHDNWGQGTMVTVSS VL: SYVLTQPPSVSGTPGQRVTISCSGGRSNIGSNKVKWYQQLPGTAPKLLIYGNDQRPSGVPDRFSGSKSGTSASLAITGVQAEDEADYYCQSYDRGTHPALLFGTGTKVTVLG | 0.000318 s⁻¹ |
| SEQ ID NO: 501 (Y61, A at L32) (antibody, V domains shown) VH: QVQLVQSGGGVVQPGRSLRLSCAASGFTFSSYGMHWVRQAPGKGLEWVAFIRYDGSNKYYADSVKGRFTISRDNSKNTLYLQMKSLRAEDTAVYYCKTHGSHDNWGQGTMVTVSS VL: SYVLTQPPSVSGTPGQRVTISCSGGRSNIGSNAVKWYQQLPGTAPKLLIYGNDQRPSGVPDRFSGSKSGTSASLAITGVQAEDEADYYCQSYDRGTHPALLFGTGTKVTVLG | 0.00191 s⁻¹ |
| SEQ ID NO: 502 (Y61, V at L32) (antibody, V domains shown) VH: QVQLVQSGGGVVQPGRSLRLSCAASGFTFSSYGMHWVRQAPGKGLEWVAFIRYDGSNKYYADSVKGRFTISRDNSKNTLYLQMKSLRAEDTAVYYCKTHGSHDNWGQGTMVTVSS VL: SYVLTQPPSVSGTPGQRVTISCSGGRSNIGSNVVKWYQQLPGTAPKLLIYGNDQRPSGVPDRFSGSKSGTSASLAITGVQAEDEADYYCQSYDRGTHPALLFGTGTKVTVLG | 0.00164 s⁻¹ |

Continued, values first:

| koff | Binder |
| --- | --- |
| 9.7e-05 s⁻¹ | SEQ ID NO: 490 (Y61, I at L31) (antibody, V domains shown) VH: QVQLVQSGGGVVQPGRSLRLSCAASGFTFSSYGMHWVRQAPGKGLEWVAFIRYDGSNKYYADSVKGRFTISRDNSKNTLYLQMKSLRAEDTAVYYCKTHGSHDNWGQGTMVTVSS VL: SYVLTQPPSVSGTPGQRVTISCSGGRSNIGSITVKWYQQLPGTAPKLLIYGNDQRPSGVPDRFSGSKSGTSASLAITGVQAEDEADYYCQSYDRGTHPALLFGTGTKVTVLG |
| 0.00026 s⁻¹ | SEQ ID NO: 495 (Y61, H at L32) (antibody, V domains shown) VH: QVQLVQSGGGVVQPGRSLRLSCAASGFTFSSYGMHWVRQAPGKGLEWVAFIRYDGSNKYYADSVKGRFTISRDNSKNTLYLQMKSLRAEDTAVYYCKTHGSHDNWGQGTMVTVSS VL: SYVLTQPPSVSGTPGQRVTISCSGGRSNIGSNHVKWYQQLPGTAPKLLIYGNDQRPSGVPDRFSGSKSGTSASLAITGVQAEDEADYYCQSYDRGTHPALLFGTGTKVTVLG |
| 0.000252 s⁻¹ | SEQ ID NO: 491 (Y61, D at L32) (antibody, V domains shown) VH: QVQLVQSGGGVVQPGRSLRLSCAASGFTFSSYGMHWVRQAPGKGLEWVAFIRYDGSNKYYADSVKGRFTISRDNSKNTLYLQMKSLRAEDTAVYYCKTHGSHDNWGQGTMVTVSS VL: SYVLTQPPSVSGTPGQRVTISCSGGRSNIGSNDVKWYQQLPGTAPKLLIYGNDQRPSGVPDRFSGSKSGTSASLAITGVQAEDEADYYCQSYDRGTHPALLFGTGTKVTVLG |
| 0.00215 s⁻¹ | SEQ ID NO: 503 (Y61, L at L32) (antibody, V domains shown) VH: QVQLVQSGGGVVQPGRSLRLSCAASGFTFSSYGMHWVRQAPGKGLEWVAFIRYDGSNKYYADSVKGRFTISRDNSKNTLYLQMKSLRAEDTAVYYCKTHGSHDNWGQGTMVTVSS VL: SYVLTQPPSVSGTPGQRVTISCSGGRSNIGSNLVKWYQQLPGTAPKLLIYGNDQRPSGVPDRFSGSKSGTSASLAITGVQAEDEADYYCQSYDRGTHPALLFGTGTKVTVLG |
| 0.00154 s⁻¹ | SEQ ID NO: 504 (Y61, I at L32) (antibody, V domains shown) VH: QVQLVQSGGGVVQPGRSLRLSCAASGFTFSSYGMHWVRQAPGKGLEWVAFIRYDGSNKYYADSVKGRFTISRDNSKNTLYLQMKSLRAEDTAVYYCKTHGSHDNWGQGTMVTVSS VL: SYVLTQPPSVSGTPGQRVTISCSGGRSNIGSNIVKWYQQLPGTAPKLLIYGNDQRPSGVPDRFSGSKSGTSASLAITGVQAEDEADYYCQSYDRGTHPALLFGTGTKVTVLG |
| 0.00191 s⁻¹ | SEQ ID NO: 493 (Y61, S at L32) (antibody, V domains shown) VH: QVQLVQSGGGVVQPGRSLRLSCAASGFTFSSYGMHWVRQAPGKGLEWVAFIRYDGSNKYYADSVKGRFTISRDNSKNTLYLQMKSLRAEDTAVYYCKTHGSHDNWGQGTMVTVSS VL: SYVLTQPPSVSGTPGQRVTISCSGGRSNIGSNSVKWYQQLPGTAPKLLIYGNDQRPSGVPDRFSGSKSGTSASLAITGVQAEDEADYYCQSYDRGTHPALLFGTGTKVTVLG |
| 0.0069 s⁻¹ | SEQ ID NO: 497 (Y61, R at L32) (antibody, V domains shown) VH: QVQLVQSGGGVVQPGRSLRLSCAASGFTFSSYGMHWVRQAPGKGLEWVAFIRYDGSNKYYADSVKGRFTISRDNSKNTLYLQMKSLRAEDTAVYYCKTHGSHDNWGQGTMVTVSS VL: SYVLTQPPSVSGTPGQRVTISCSGGRSNIGSNRVKWYQQLPGTAPKLLIYGNDQRPSGVPDRFSGSKSGTSASLAITGVQAEDEADYYCQSYDRGTHPALLFGTGTKVTVLG |

Target: T1, human interleukin 12 (p70 heterodimer …)
Test: SPR (BIAcore), off-rate
Remark: another data set of the same source

| koff | Binder |
| --- | --- |
| 0.000617 s⁻¹ | SEQ ID NO: 507 (Y61, E at L50) (antibody, V domains shown) VH: QVQLVQSGGGVVQPGRSLRLSCAASGFTFSSYGMHWVRQAPGKGLEWVAFIRYDGSNKYYADSVKGRFTISRDNSKNTLYLQMKSLRAEDTAVYYCKTHGSHDNWGQGTMVTVSS VL: SYVLTQPPSVSGTPGQRVTISCSGGRSNIGSNTVKWYQQLPGTAPKLLIYENDQRPSGVPDRFSGSKSGTSASLAITGVQAEDEADYYCQSYDRGTHPALLFGTGTKVTVLG |
| 0.000761 s⁻¹ | SEQ ID NO: 511 (Y61, H at L50) (antibody, V domains shown) VH: QVQLVQSGGGVVQPGRSLRLSCAASGFTFSSYGMHWVRQAPGKGLEWVAFIRYDGSNKYYADSVKGRFTISRDNSKNTLYLQMKSLRAEDTAVYYCKTHGSHDNWGQGTMVTVSS VL: SYVLTQPPSVSGTPGQRVTISCSGGRSNIGSNTVKWYQQLPGTAPKLLIYHNDQRPSGVPDRFSGSKSGTSASLAITGVQAEDEADYYCQSYDRGTHPALLFGTGTKVTVLG |
| 0.000467 s⁻¹ | SEQ ID NO: 508 (Y61, C at L50) (antibody, V domains shown) VH: QVQLVQSGGGVVQPGRSLRLSCAASGFTFSSYGMHWVRQAPGKGLEWVAFIRYDGSNKYYADSVKGRFTISRDNSKNTLYLQMKSLRAEDTAVYYCKTHGSHDNWGQGTMVTVSS VL: SYVLTQPPSVSGTPGQRVTISCSGGRSNIGSNTVKWYQQLPGTAPKLLIYCNDQRPSGVPDRFSGSKSGTSASLAITGVQAEDEADYYCQSYDRGTHPALLFGTGTKVTVLG |
| 0.000286 s⁻¹ | SEQ ID NO: 509 (Y61, S at L50) (antibody, V domains shown) VH: QVQLVQSGGGVVQPGRSLRLSCAASGFTFSSYGMHWVRQAPGKGLEWVAFIRYDGSNKYYADSVKGRFTISRDNSKNTLYLQMKSLRAEDTAVYYCKTHGSHDNWGQGTMVTVSS VL: SYVLTQPPSVSGTPGQRVTISCSGGRSNIGSNTVKWYQQLPGTAPKLLIYSNDQRPSGVPDRFSGSKSGTSASLAITGVQAEDEADYYCQSYDRGTHPALLFGTGTKVTVLG |
| 0.000348 s⁻¹ | SEQ ID NO: 506 (Y61, D at L50) (antibody, V domains shown) VH: QVQLVQSGGGVVQPGRSLRLSCAASGFTFSSYGMHWVRQAPGKGLEWVAFIRYDGSNKYYADSVKGRFTISRDNSKNTLYLQMKSLRAEDTAVYYCKTHGSHDNWGQGTMVTVSS VL: SYVLTQPPSVSGTPGQRVTISCSGGRSNIGSNTVKWYQQLPGTAPKLLIYDNDQRPSGVPDRFSGSKSGTSASLAITGVQAEDEADYYCQSYDRGTHPALLFGTGTKVTVLG |
